{"source": "the DeepSol protein solubility set", "data": [{"assay": "soluble on expression in E. coli; label from the status in PepcDB or PDB records", "values": [{"sequence": "MRGSHHHHHHTDPINKDIYQALQQLIPNEKIKVDEPLKRYTYTKTGGNADFYITPTKNEEVQAVVKYAYQNEIPVTYLGNGSNIIIREGGIRGIVISLLSLDHIEVSDDAIIAGSGAAIIDVSRVARDYALTGLEFACGIPGSIGGAVYMNAGAYGGEVKDCIDYALCVNEQGSLIKLTTKELELDYRNSIIQKEHLVVLEAAFTLAPGKMTEIQAKMDDLTERRESKQPLEYPSCGSVFQRPPGHFAGKLIQDSNLQGHRIGGVEVSTKHAGFMVNVDNGTATDYENLIHYVQKTVKEKFGIELNREVRIIGEHPKESLQPSLIS", "soluble on expression in E. coli": "soluble"}, {"sequence": "MRGSHHHHHHTDPLPRLPVPPLQQSLDHYLKALQPIVSEEEWAHTKQLVDEFQASGGVGERLQKGLERRARKTENWLSEWWLKTAYLQYRQPVVIYSSPGVMLPKQDFVDLQGQLRFAAKLIEGVLDFKVMIDNETLPVEYLGGKPLCMNQYYQILSSCRVPGPKQDTVSNFSKTKKPPTHITVVHNYQFFELDVYHSDGTPLTADQIFVQLEKIWNSSLQTNKEPVGILTSNHRNSWAKAYNTLIKDKVNRDSVRSIQKSIFTVCLDATMPRVSEDVYRSHVAGQMLHGGGSRLNSGNRWFDKTLQFIVAEDGSCGLVYEHAAAEGPPIVTLLDYVIEYTKKPELVRSPMVPLPMPKKLRFNITPEIKSDIEKAKQNLSIMIQDLDITVMVFHHFGKDFPKSEKLSPDAFIQMALQLAYYRIYGQACATYESASLRMFHLGRTDTIRSASMDSLTFVKAMDDSSVTEHQKVELLRKAVQAHRGYTDRAIRGEAFDRHLLGLKLQAIEDLVSTPDIFMDTSYAIAMHFHLSTSQVPAKTDCVMFFGPVVPDGYGVCYNPMEAHINFSLSAYNSCAETNAARLAHYLEKALLDMRALLQSHPRAKLISEEDLSLISG", "soluble on expression in E. coli": "soluble"}, {"sequence": "MRGVVGVLALQGDFREHKEALKRLGIEAKEVRKKEHLEGLKALIVPGGESTTIGKLAREYGIEDEVRKRVEEGSLALFGTCAGAIWLAKEIVGYPEQPRLGVLEAWVERNAFGRQVESFEEDLEVEGLGSFHGVFIRAPVFRRLGEGVEVLARLGDLPVLVRQGKVLASSFHPELTEDPRLHRYFLELAGV", "soluble on expression in E. coli": "soluble"}, {"sequence": "MRGVVKELNDDGFGVLGNVLVPFSAPGDEVEILKIEKVKKAKIASKWKLIKSSPLRVGARCKVFGRCGGCSLQHLSYDYQLEFKGERIRRLLGVDVEVIPSPRIFGHRNRIDLAVTVEGIGFRERGKWWKIVDIQECPVFGKTSRKAIERLREFIEEERISVWNVKKDEGFLRYMVLREGKFTGEVMVNLVTKEGKLPDPSKYFDFATSIYWSVNRTKSDVSYGEVESVWGREFITEKLDDVIYLIHPNSFFQTNSYQAVNLVKKVSELVEGERVLDMYSGVGTFGIYLAKRGFKVVGFDSNEFAIEMARKNAKINKVDAVFDVATDREVEVNGFDTVIVDPPRVGLHPKLIKKLNREKPEVIVYVSCNPKTFARDIEKLEYKIDEIVALDMFPHTPHLELVAKLIV", "soluble on expression in E. coli": "soluble"}, {"sequence": "MRGYFIVLEGIDGSGKTTQAKLLAEWFEDKGYEVLLTKEPTDSELGKLIRRIILEESVIDGSKISYEAEALLFAADRAEHVKKIILPALSEGKVVICDRYFYSSLAYQWARGLDLNWLIQVNSFAPRPDLAILLDLPVKESLRRIKLRGTLTEFDKIVELQRKVRHNYLKLAEMFPEMRIVNALSSIEDIHSDIVALVKHELLGL", "soluble on expression in E. coli": "soluble"}, {"sequence": "MRHFDASQPLRVAVLGTGFGSKVHIPALQHHSETTVQAVYHRQPDRAAAIAVQFGIPNAYSDLDQLLADPAIEAVTIASPPFLHYPMAWAALSAGKSVLLEKPTTLNVEEARALWKLASSQGLTVTLDFEYRFVPAWQYVAELLAEGVIGQPWLVKLDWLMSSRADASRPWNWYALRSQGGGALGALGSHSFDYLAWLFGPARRLQARLFTAIQERPDATTGELKPVDSDDTDLIQLELAEGVPCQISLSSVFRQGRGHWLEVYGDRGTLILGSSNQKDYVHGFQVWFASAGQALQELTVPQRLAFRQEFADGRLAPFLRVVDHWLADLRHGQMTAPSLKEGLYSQLLIDLCWQSQRSGEWQTVPELNRFLLEHHHHHH", "soluble on expression in E. coli": "not soluble"}, {"sequence": "MRHMMQLKAPFFSDNATDLPFWWEEARPSPVQTDDLPSSTEVAIIGAGFTGLNAALVLARAGKQVSVFDADEPGYGASSRNGGFLGPGWAFFDTGMQYGADTARQIVEESFHSLQHVKDVVAMEKIDCDLKEVGYFKGAMTPRVYDAIGRNMDRIRKIIPCNVYMVPRSEQHKEIGSDLYHGGVAMPGYCGIHPAKYVKGLAEAANRLGVKIYSNARVSDLEGKNGGFSFKVGSRTIAARQILLAANGYSGSLLPHLKRRIIPVGSGLIATEQLPVEVMDRLMPKRQMLAGSQRVVTYYRPSPDNTRIVFGGRVLNMSGAHESAVANAKYIRSLLLAVFPELASAKITNYWHGQLGFTFDHLPHVQTIDGMYFAGGYNGTGVARASWLGSRVAYEMLGSDLGKTVYRNLPFDGRRFYNGKPYFLPLAVWYYGMLDKWDQRLEHHHHHH", "soluble on expression in E. coli": "not soluble"}, {"sequence": "MRHMSGDHAALVLGAGAGRRLGRSKQLLMRDGEPLLRRAARIALLTAPRRCVVVLGADADTLSEVLQDLDIEILRHPDWSEGMGSSLAALRRHVQGDPALRRSLILGCDQPALDAPHLRSLLEEADRAVSGCATSGYSGVRGIPAVVTHTAWADVPLQADSGLRGLFASLDMQSLGCVSAPALALDIDTPADLATAQQRGWVDAELEHHHHHH", "soluble on expression in E. coli": "not soluble"}, {"sequence": "MRHSSYEHVPNRIIPPHIPIDARRGDFDRRPGPPVPSMRAAILGGSDPYHGFQPVVDTYNGPVVDNSRRRGFDKGPFGEDLTTMGRNEGRQPLLRHPRLDFEHIGGEMEIARSRSASPEIQVISARSVRDDRRRDKPRQRRSSRSRSRDRGDKDHRKPAASRRSDRESTYRERLGSSSGPAAAPDIIRDGMVWANDNYFEFLSFYIEVLNEKLRSSVDRDVKGIREIREVITPATEPEKDRIVLPPNFNRSDRERMLHCDTTITGLPTAIFFGSGYGPREHYAKYSAAKDFFDKCLKIRVMDDELHAAIGEWPRLDRTFKTQFKVNISKSVNAVILLIKRMANEQLPPGFMTMRTLPIDIIDRFKFLLRMVVADVYYQGTESSMAVPKALETGYNTQPYPPNQYPLDTDIRRPSERPSNGPSAEEAARVRDQEIKEQVARELEKRQKVMEQEIRAKILEEERARIQGEAEREKKLELMKAEEQKYQKEKEMKEFEEQQKKAMMTKQVEDDFNVMVEQLEKMFVEVRSKGLNHILDMIYGSATFKTIQLYSSTLTSLSFEQKQKLVQDLRSLLDSVTMGMKVAAVAQMSQAQNPIQGGLFQHQQQQQQPMMSGGGGFVSGVQVVPMQVPMQSYQMPQMQIHHQAFPQPQQLNTTPLLSSSVPMRRDEVRRVTVGDMRLRSLSRSEQRDLRVGNKIIAQDSKTGTWTLATVVKIREDRVTVSVANGTWKKDIDDLYKEDDGSLVY", "soluble on expression in E. coli": "not soluble"}, {"sequence": "MRIAAAVVSIGLAVIAGFAVPVADAHPSEPGVVSYAVLGKGSVGNIVGAPMGWEAVFTRPFQAFWVELPACNNWVDIGLPEVYDDPDLASFNGATTQTSATDQTHLVKQAVGVFASNDAADRAFHRVVDRTVGCSGQTTAIHLDDGTTQVWSFAGGPSTGTDEAWTKQEAGTDRRCFVQTRLRENVLLQAKVCQSGNAGPAVNVLAGAMQNTLG", "soluble on expression in E. coli": "soluble"}, {"sequence": "MRIAIIGSGCSGLTAIKNLLDAGLKEIICFEKSDQIGGNWVYTAAPSHSSVSEATHIISSKALSQFSDFPMPDDYPDYPSHQQILAYFQAYTRHFHLDHYIRFNTAVLRAEKIEKERWCLHLDDGTQAEFDYLLVANGHHSVPRHPDWKECFTGKYLHAHEYKTNQGLEGKRILVVGAGNSGCDCAVEASRVAARVDISLRSPQYIIPKFIMGRPTDTFAATFHWLPQSVQDGLQRISLRLQIGRYHDYALPEPDFSPTRAHPTINSALFDKIRHGKVHPRPGIQKVSGQTVYFADNATAQYDVLIAATGYKISFPFFDRDFLDWEEAAHIPLFLRIFHPDHPSLFFVGLIQPQGCIWPLAEIQARLIGQLLTNKIQLPLNWRKLALSEGRNRAQQFIARPRHSIEVHYYPYLKQLQRMIQGQIKLEHHHHHH", "soluble on expression in E. coli": "soluble"}, {"sequence": "MRIEGELVKAKFVKRLNRFVALVEVDGVQEFAHVPNTGRLKELLVDGAAVMVRKYDKTDRKTRFGLILVRKNGIWVSIDSANAPNRIMYEALVQGKFDKFRDYSEIRREVTVLNSRFDFGLFSEGKEYYIEVKGVTLVENRQGFFPDAPTQRGTRHLEELTKIRQNGKEAGVAFIVQREDADVVRPNDRTDKNFANALRIAAEAGVDLMAYVCKVDAEQRRMDIVREIPVIIK", "soluble on expression in E. coli": "soluble"}, {"sequence": "MRIFAVFIFMTYWHLLNAFTVTVPKDLYVVEYGSNMTIECKFPVEKQLDLAALIVYWEMEDKNIIQFVHGEEDLKVQHSSYRQRARLLKDQLSLGNAALQITDVKLQDAGVYRCMISYGGADYKRITVKVNAPYNKINQRILVVDPVTSEHELTCQAEGYPKAEVIWTSSDHQVLSGKTTTTNSKREEKLFNVTSTLRINTTTNEIFYCTFRRLDPEENHTAELVIPELPLIEGRSRGSGLNDIFEAQKIEWHHHHHHHH", "soluble on expression in E. coli": "soluble"}, {"sequence": "MRIFLNTVHLFALCAAAAIATEESTTPKPASWKFGTIAGEPDDYTNSTAVQVNNFKECIAKCSAIFDCIIASQKSKSEPCNLFLWNSVTKVKRAESGGEGQTAFRVFTEQPRCKLSMDELLNGKKYQIYKNDTEHYIWTINKTEDGWAMEYSKTILNNIIHCNDPDAYKYPGVRGCYKIVLPFKEDKKWESGMLSYPEAVGNCTLLGGDGLMTIPSSDFASQIKQNQNSTQSSTVYFIGLTRPDDSSNDNWVWTLPDLKIDSSPLPPWSFPPSLNVEAIWAENCALVSIEADPTKSLLHATLCQQWNRMSGYICHFAQ", "soluble on expression in E. coli": "not soluble"}, {"sequence": "MRILFVGPPLYGLLYPVLSLAQAFRVNGHEVLIASGGKFAQKAAEAGLVVFDAAPGFDSEAGYRRQEALRKENNIGTKMGNFSFFSEEMTDPLVAFAGQWRPDLIVYPPLGVVGPLIAAKYDIPVVMQTVGFGHTPWHIKGVTKSLSNAYRRHGVSAPPRDLAWIDVTPPSMSILQNDGEPVISMQYVPYNGGAVWEEWWERTPDRKRLLVSLGTVKPMVDGLDLISWVMDSAGEVDAEIILHLPANARSDLRSLPPNVRLVDWLPMGVFLNGADGFIHHGGAGNTLTALHAGIPQIVFGQGADRPVNARAVVERGCGIIPGKSGLTSSMINTFLGNRALREASQEVAAEMAAQPCPTEVAKKLIAMLQHGLEHHHHHH", "soluble on expression in E. coli": "not soluble"}, {"sequence": "MRILHTSDWHLGQNFYSKSREAEHQAFLDWLLETAQTHQVDAIIVAGDVFDTGSPPSYARTLYNRFVVNLQQTGCHLVVLAGNHDSVATLNESRDIMAFLNTTVVASAGHAPQILPRRDGTPGAVLCPIPFLRPRDIITSQAGLNGIEKQQHLLAAITDYYQQHYADACKLRGDQPLPIIATGHLTTVGASKSDAVRDIYIGTLDAFPAQNFPPADYIALGHIHRAQIIGGMEHVRYCGSPIPLSFDECGKSKYVHLVTFSNGKLESVENLNVPVTQPMAVLKGDLASITAQLEQWRDVSQEPPVWLDIEITTDEYLHDIQRKIQALTESLPVEVLLVRRSREQRERVLASQQRETLSELSVEEVFNRRLALEELDESQQQRLQHLFTTTLHTLAGEHEA", "soluble on expression in E. coli": "soluble"}]}]}
